From patent publication US20230241168A1 (ALPINE IMMUNE SCIENCES, published 2023)

Columns and labels:
recombinant human APRIL = molecular target: T1, recombinant human APRIL (human, UniProt O75888 105-250, limits assumed); assay: cell-based or functional assay
T1 sequence (looked up): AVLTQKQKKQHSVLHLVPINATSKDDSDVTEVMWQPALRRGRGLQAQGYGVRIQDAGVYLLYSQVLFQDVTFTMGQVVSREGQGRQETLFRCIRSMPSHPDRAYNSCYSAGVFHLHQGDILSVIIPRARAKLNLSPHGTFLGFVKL

recombinant human BAFF = recombinant human BAFF (human, UniProt Q9Y275 134-285); assay: cell-based or functional assay

B1: CTLA 4 92 GSG4S Fc (G4S)2 TACI 516 (Fc fusion)
chain: KAMHVAQPAVVLASSRGIASFVCEYASPWKATEVRVTVLRQADSQVTEVCAATYMMGSELTFPDDSICTGTSSGNQVNLTIRGLRAMDTGLYICKVEQMYPPPYLLGIGNGTQIYVIDPEPCPDSDGSGGGGSEPKSSDKTHTCPPCPAPEAEGAPSVFLFPPKPKDTLMISRTPEVTCVVVDVSHEDPEVKFNWYVDGVEVHNAKTKPREEQYNSTYRVVSVLTVLHQDWLNGKEYKCKVSNKALPAPIEKTISKAKGQPREPQVYTLPPSRDELTKNQVSLTCLVKGFYPSDIAVEWESNGQPENNYKTTPPVLDSDGSFFLYSKLTVDKSRWQQGNVFSCSVMHEALHNHYTQKSLSLSPGGGGGSGGGGSVAMRSCPEEQYWDPLLGTCMSCKTICNHQSQRTCAAFCRSLSCRKEQGKFYDHLLRDCISCASICGQHPKQCAYFCENKLRS
Recombinant human APRIL
  IC50 (nM) APRIL: 6.75 nM
  IC50 APRIL (Δ Parental vTD): 1.3 ratio
Recombinant human BAFF
  IC50 (nM) BAFF: 1.73 nM
  IC50 BAFF (Δ Parental vTD): 1 ratio

B2: CTLA-4 113 GSG4S Fc (G4S)4 TACI 535 (68-110) (Fc fusion)
chain: KAMHVAQPAVVFASSHGIASFVCEYASPWKATEVRVTVLRQADSQVTEVCAATYMTGNELTFLDDSICTGTSSGNQVNLTIQGLRAMDTGLYICKVEQMYPPPYLLGIGNGTQIYVIDPEPCPDSDGSGGGGSEPKSSDKTHTCPPCPAPEAEGAPSVFLFPPKPKDTLMISRTPEVTCVVVDVSHEDPEVKFNWYVDGVEVHNAKTKPREEQYNSTYRVVSVLTVLHQDWLNGKEYKCKVSNKALPAPIEKTISKAKGQPREPQVYTLPPSRDELTKNQVSLTCLVKGFYPSDIAVEWESNGQPENNYKTTPPVLDSDGSFFLYSKLTVDKSRWQQGNVFSCSVMHEALHNHYTQKSLSLSPGGGGGSGGGGSGGGGSGGGGSSLSCRKEQGKFYDHLLGDCISCASICGQHPKQCAYFCENKLRS
Recombinant human APRIL
  IC50 (nM) APRIL: 8.63 nM
Recombinant human BAFF
  IC50 (nM) BAFF: 0.506 nM
  IC50 BAFF (Δ Parental vTD): 0.4 ratio

B3: CTLA-4 113 GSG4S Fc (G4S)4 TACI 688 (29-110) (Fc fusion)
chain: KAMHVAQPAVVFASSHGIASFVCEYASPWKATEVRVTVLRQADSQVTEVCAATYMTGNELTFLDDSICTGTSSGNQVNLTIQGLRAMDTGLYICKVEQMYPPPYLLGIGNGTQIYVIDPEPCPDSDGSGGGGSEPKSSDKTHTCPPCPAPEAEGAPSVFLFPPKPKDTLMISRTPEVTCVVVDVSHEDPEVKFNWYVDGVEVHNAKTKPREEQYNSTYRVVSVLTVLHQDWLNGKEYKCKVSNKALPAPIEKTISKAKGQPREPQVYTLPPSRDELTKNQVSLTCLVKGFYPSDIAVEWESNGQPENNYKTTPPVLDSDGSFFLYSKLTVDKSRWQQGNVFSCSVMHEALHNHYTQKSLSLSPGGGGGSGGGGSGGGGSGGGGSVAMRSCPEEQYWDPLLGTCMSCKTICNHQSQRTCAAFCRSLSCRKEQGKFYDHLLGDCISCASICGQHPKQCAYFCENKLRS
Recombinant human APRIL
  IC50 (nM) APRIL: 8.25 nM
  IC50 APRIL (Δ Parental vTD): 1.4 ratio
Recombinant human BAFF
  IC50 (nM) BAFF: 0.566 nM
  IC50 BAFF (Δ Parental vTD): 0.4 ratio

B4: BCMA 381 GSG4S-Fc-(G4S)4-CTLA-4 186 (Fc fusion)
chain: LQMAGQCSQNEYFDALLYACIPCQLRCSSNTPPLTCQQYCNASVTNSVKGTNAGSGGGGSEPKSSDKTHTCPPCPAPEAEGAPSVFLFPPKPKDTLMISRTPEVTCVVVDVSHEDPEVKFNWYVDGVEVHNAKTKPREEQYNSTYRVVSVLTVLHQDWLNGKEYKCKVSNKALPAPIEKTISKAKGQPREPQVYTLPPSRDELTKNQVSLTCLVKGFYPSDIAVEWESNGQPENNYKTTPPVLDSDGSFFLYSKLTVDKSRWQQGNVFSCSVMHEALHNHYTQKSLSLSPGGGGGSGGGGSGGGGSGGGGSKAMHVAQPAVVLASSRGIASFVCEYASPWKATEVRVTVLRQADSQVTEVCAATYMMGNELTFLDDSICTGTSSGNQVNLTIQGLRAMDTGLYICKVEQMYPPPYLLGIGNGTQIYVIDPEPCPDSD
Recombinant human APRIL
  IC50 (nM) APRIL: 0.876 nM
Recombinant human BAFF
  IC50 (nM) BAFF: 0.0617 nM

B5: TACI 542 GSG4S Fc (G4S)4 (CTLA-4 186) (Fc fusion)
chain: SLSCRKEEGKFYDHLLQDCISCASICGQHPKQCAYFCENKLRSGSGGGGSEPKSSDKTHTCPPCPAPEAEGAPSVFLFPPKPKDTLMISRTPEVTCVVVDVSHEDPEVKFNWYVDGVEVHNAKTKPREEQYNSTYRVVSVLTVLHQDWLNGKEYKCKVSNKALPAPIEKTISKAKGQPREPQVYTLPPSRDELTKNQVSLTCLVKGFYPSDIAVEWESNGQPENNYKTTPPVLDSDGSFFLYSKLTVDKSRWQQGNVFSCSVMHEALHNHYTQKSLSLSPGGGGGSGGGGSGGGGSGGGGSKAMHVAQPAVVLASSRGIASFVCEYASPWKATEVRVTVLRQADSQVTEVCAATYMMGNELTFLDDSICTGTSSGNQVNLTIQGLRAMDTGLYICKVEQMYPPPYLLGIGNGTQIYVIDPEPCPDSD
Recombinant human APRIL
  IC50 (nM) APRIL: 1.2 nM
Recombinant human BAFF
  IC50 (nM) BAFF: 0.179 nM

B6: BCMA 357 (G4S)3 CTLA-4 92 GSG4S Fc (Fc fusion)
chain: LQMAGQCSQNEYFDSLLYACIPCQLRCSSNTPPLTCQRYCNASVTNSVKGTNAGGGGSGGGGSGGGGSGGGGSKAMHVAQPAVVLASSRGIASFVCEYASPWKATEVRVTVLRQADSQVTEVCAATYMMGSELTFPDDSICTGTSSGNQVNLTIRGLRAMDTGLYICKVEQMYPPPYLLGIGNGTQIYVIDPEPCPDSDGSGGGGSEPKSSDKTHTCPPCPAPEAEGAPSVFLFPPKPKDTLMISRTPEVTCVVVDVSHEDPEVKFNWYVDGVEVHNAKTKPREEQYNSTYRVVSVLTVLHQDWLNGKEYKCKVSNKALPAPIEKTISKAKGQPREPQVYTLPPSRDELTKNQVSLTCLVKGFYPSDIAVEWESNGQPENNYKTTPPVLDSDGSFFLYSKLTVDKSRWQQGNVFSCSVMHEALHNHYTQKSLSLSPG
Recombinant human APRIL
  IC50 (nM) APRIL: 0.689 nM
  IC50 APRIL (Δ Parental vTD): 0.7 ratio
Recombinant human BAFF
  IC50 (nM) BAFF: 0.396 nM
  IC50 BAFF (Δ Parental vTD): 0.4 ratio

B7: BCMA 357 GSG4S Fc (G4S)3 CTLA-4 92 (Fc fusion)
chain: LQMAGQCSQNEYFDSLLYACIPCQLRCSSNTPPLTCQRYCNASVTNSVKGTNAGSGGGGSEPKSSDKTHTCPPCPAPEAEGAPSVFLFPPKPKDTLMISRTPEVTCVVVDVSHEDPEVKFNWYVDGVEVHNAKTKPREEQYNSTYRVVSVLTVLHQDWLNGKEYKCKVSNKALPAPIEKTISKAKGQPREPQVYTLPPSRDELTKNQVSLTCLVKGFYPSDIAVEWESNGQPENNYKTTPPVLDSDGSFFLYSKLTVDKSRWQQGNVFSCSVMHEALHNHYTQKSLSLSPGGGGGSGGGGSGGGGSGGGGSKAMHVAQPAVVLASSRGIASFVCEYASPWKATEVRVTVLRQADSQVTEVCAATYMMGSELTFPDDSICTGTSSGNQVNLTIRGLRAMDTGLYICKVEQMYPPPYLLGIGNGTQIYVIDPEPCPDSD
Recombinant human APRIL
  IC50 (nM) APRIL: 0.582 nM
  IC50 APRIL (Δ Parental vTD): 0.6 ratio
Recombinant human BAFF
  IC50 (nM) BAFF: 0.415 nM
  IC50 BAFF (Δ Parental vTD): 0.4 ratio

B8: CTLA-4 92 (G4S)4 BCMA 357 GSG4S Fc (Fc fusion)
chain: KAMHVAQPAVVLASSRGIASFVCEYASPWKATEVRVTVLRQADSQVTEVCAATYMMGSELTFPDDSICTGTSSGNQVNLTIRGLRAMDTGLYICKVEQMYPPPYLLGIGNGTQIYVIDPEPCPDSDGGGGSGGGGSGGGGSGGGGSLQMAGQCSQNEYFDSLLYACIPCQLRCSSNTPPLTCQRYCNASVTNSVKGTNAGSGGGGSEPKSSDKTHTCPPCPAPEAEGAPSVFLFPPKPKDTLMISRTPEVTCVVVDVSHEDPEVKFNWYVDGVEVHNAKTKPREEQYNSTYRVVSVLTVLHQDWLNGKEYKCKVSNKALPAPIEKTISKAKGQPREPQVYTLPPSRDELTKNQVSLTCLVKGFYPSDIAVEWESNGQPENNYKTTPPVLDSDGSFFLYSKLTVDKSRWQQGNVFSCSVMHEALHNHYTQKSLSLSPG
Recombinant human APRIL
  IC50 (nM) APRIL: 0.63 nM
  IC50 APRIL (Δ Parental vTD): 0.6 ratio
Recombinant human BAFF
  IC50 (nM) BAFF: 3.75 nM
  IC50 BAFF (Δ Parental vTD): 3.8 ratio

B9: CTLA-4 92 GSG4S Fc (G4S)3 BCMA 357 (Fc fusion)
chain: KAMHVAQPAVVLASSRGIASFVCEYASPWKATEVRVTVLRQADSQVTEVCAATYMMGSELTFPDDSICTGTSSGNQVNLTIRGLRAMDTGLYICKVEQMYPPPYLLGIGNGTQIYVIDPEPCPDSDGSGGGGSEPKSSDKTHTCPPCPAPEAEGAPSVFLFPPKPKDTLMISRTPEVTCVVVDVSHEDPEVKFNWYVDGVEVHNAKTKPREEQYNSTYRVVSVLTVLHQDWLNGKEYKCKVSNKALPAPIEKTISKAKGQPREPQVYTLPPSRDELTKNQVSLTCLVKGFYPSDIAVEWESNGQPENNYKTTPPVLDSDGSFFLYSKLTVDKSRWQQGNVFSCSVMHEALHNHYTQKSLSLSPGGGGGSGGGGSGGGGSLQMAGQCSQNEYFDSLLYACIPCQLRCSSNTPPLTCQRYCNASVTNSVKGTNA
Recombinant human APRIL
  IC50 (nM) APRIL: 0.55 nM
  IC50 APRIL (Δ Parental vTD): 0.5 ratio
Recombinant human BAFF
  IC50 (nM) BAFF: 0.548 nM
  IC50 BAFF (Δ Parental vTD): 0.6 ratio

B10: CTLA-4 92 GSG4S Fc (G4S)5 BCMA 357 (Fc fusion)
chain: KAMHVAQPAVVLASSRGIASFVCEYASPWKATEVRVTVLRQADSQVTEVCAATYMMGSELTFPDDSICTGTSSGNQVNLTIRGLRAMDTGLYICKVEQMYPPPYLLGIGNGTQIYVIDPEPCPDSDGSGGGGSEPKSSDKTHTCPPCPAPEAEGAPSVFLFPPKPKDTLMISRTPEVTCVVVDVSHEDPEVKFNWYVDGVEVHNAKTKPREEQYNSTYRVVSVLTVLHQDWLNGKEYKCKVSNKALPAPIEKTISKAKGQPREPQVYTLPPSRDELTKNQVSLTCLVKGFYPSDIAVEWESNGQPENNYKTTPPVLDSDGSFFLYSKLTVDKSRWQQGNVFSCSVMHEALHNHYTQKSLSLSPGGGGGSGGGGSGGGGSGGGGSGGGGSLQMAGQCSQNEYFDSLLYACIPCQLRCSSNTPPLTCQRYCNASVTNSVKGTNA
Recombinant human APRIL
  IC50 (nM) APRIL: 0.687 nM
  IC50 APRIL (Δ Parental vTD): 0.7 ratio
Recombinant human BAFF
  IC50 (nM) BAFF: 0.765 nM
  IC50 BAFF (Δ Parental vTD): 0.8 ratio
